Here are results for three molecules from patent US12338268B2, “Compositions and methods for treating protein aggregation-associated diseases” (The Board of Trustees of the Leland Stanford Junior …, priority 2019, dated 2025).

Test [1] has as its target T1, mutant Huntingtin exon 1 (mHttQ51) (Homo sapiens, UniProt P42858, INS38QQQQQQQQQQQQQQQQQQQQQQQQQQQQQQQ).
T1 construct: mutant Huntingtin exon 1 containing a pathogenic stretch of 51 glutamines (mHttQ51); GST (N, cleaved yes); made in house; host or cells: E. coli Rosetta 2(DE3) pLysS
The test is described as follows: In vitro filter trap aggregation assay of mutant Huntingtin exon 1. The format is biochemical. The conditions noted are these: for mHttQ51 aggregation: 5× molar excess, 3 μM mHttQ51, filter trap, SDS-insoluble aggregates. How it is done: (§1) Mutant Huntingtin and PolyQ51 aggregation reactions were performed at concentration 3 μM of mHttQ51, 0.044 Units/μl acTEV protease (Invitrogen, Carlsbad, CA, USA), and respective concentrations of Ovalbumin (Sigma) or purified NAC chaperone variants. Aggregation was conducted in TEV reaction buffer (Invitrogen) and incubated at 30° C. AtxQ78 was buffer exchanged into TEV reaction buffer using 7K MWCO Zeba Spin Desalting Columns (Thermo Fisher) to initiate aggregation. AtxQ78 aggregation reactions were performed at 30 μM of Ataxin-3 in reaction buffer (20 mM sodium phosphate pH 7.5, 25 mM NaCl, 6 mM MgCl2, 2 mM DTT, 5% (v/v) glycerol) and incubated at 37° C. Samples at varied time-points were then taken and combined in a 1:1 ratio with a 4% (w/v) SDS, 100 mM DTT solution, boiled for 5 min at 95° C., and stored at −20° C. Samples were then filtered through a 0.22 μm cellulose acetate membrane (Whatman) and washed with 0.1% (w/v) SDS. Membrane was probed using an S-tag antibody (Abcam) for mHttQ51 and PolyQ51, and with a His-tag antibody (Abcam) for AtxQ78.

The target of test [2] is T2, full-length Ataxin-3 (AtxQ78) (Homo sapiens, UniProt P54252, INS305QQQQQQQQQQQQQQQQQQQQQQQQQQQQQQQQQQQQQQQQQQQQQQQQQQQQQQQQQQQQQQQQ).
T2 construct: full-length Ataxin-3 harboring a stretch of 78 glutamines (AtxQ78); made in house
The test is described as follows: Filter trap aggregation assay of AtxQ78. Type of test: biochemical. The conditions noted are these: equimolar (1×) NAC, 37° C. How it is done:
as §1

T1 sequence (P42858 with tags, fused parts or gaps with the stated changes limits assumed): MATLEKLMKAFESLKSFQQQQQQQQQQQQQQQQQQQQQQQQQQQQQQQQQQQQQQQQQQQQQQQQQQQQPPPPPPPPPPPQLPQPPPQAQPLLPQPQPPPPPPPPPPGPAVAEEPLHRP
T2 sequence (P54252 with tags, fused parts or gaps with the stated changes): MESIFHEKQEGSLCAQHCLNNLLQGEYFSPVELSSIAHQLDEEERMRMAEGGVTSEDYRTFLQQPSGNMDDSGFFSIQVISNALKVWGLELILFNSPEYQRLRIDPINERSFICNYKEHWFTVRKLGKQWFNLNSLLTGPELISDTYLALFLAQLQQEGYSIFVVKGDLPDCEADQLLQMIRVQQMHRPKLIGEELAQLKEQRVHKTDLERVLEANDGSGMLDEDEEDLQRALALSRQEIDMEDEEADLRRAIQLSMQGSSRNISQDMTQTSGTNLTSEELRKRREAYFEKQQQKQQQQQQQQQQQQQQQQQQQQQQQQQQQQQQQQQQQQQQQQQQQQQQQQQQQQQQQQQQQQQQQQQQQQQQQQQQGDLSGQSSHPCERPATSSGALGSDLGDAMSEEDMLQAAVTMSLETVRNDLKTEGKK

B1: ovalbumin: molar equivalent ovalbumin control protein (Sigma) (protein, UniProt P01012 2-386, looked up)
Ovalbumin: GSIGAASMEFCFDVFKELKVHHANENIFYCPIAIMSALAMVYLGAKDSTRTQINKVVRFDKLPGFGDSIEAQCGTSVNVHSSLRDILNQITKPNDVYSFSLASRLYAEERYPILPEYLQCVKELYRGGLEPINFQTAADQARELINSWVESQTNGIIRNVLQPSSVDSQTAMVLVNAIVFKGLWEKAFKDEDTQAMPFRVTEQESKPVQMMYQIGLFRVASMASEKMKILELPFASGTMSMLVLLPDEVSGLEQLESIINFEKLTEWTSSNVMEERKIKVYLPRMKMEEKYNLTSVLMAMGITDVFSSSANLSGISSAESLKISQAVHAAHAEINEAGREVVGSAEAGVDAASVSEEFRADHPFLFCIKHIATNAVLFFGRCVSP
In the case of B1, the mHttQ51 aggregation entry in test [1] is “little effect”.

B2: ApiCCT1: the 140 amino acid apical domain of CCT1 (protein)
chain: MVPGYALNCTVASQAMPKRIAGGNVKIACLDLNLQKARMAMGVQINIDDPEQLEQIRKREAGIVLERVKKIIDAGAQVVLTTKGIDDLCLKEFVEAKIMGVRRCKKEDLRRIARATGATLVSSMSNLEGEETFESSYLGLCDEVVQAKFSDDECILIKGTSKAAAAALEHHHHHH
B2: the “polyQ aggregation of huntingtin exon1” value in test [1] (system with purified components) was “specifically and efficiently inhibits polyQ aggregation of huntingtin exon1”.

B3: C. elegans NAC: purified recombinant C. elegans nascent polypeptide-associated complex (protein)
chain 1: MTGSTETRQKEVKEPQVDVSDDSDNEAVEQELTEEQRRVAEAAGLGDHIDKQAKQSRSEKKARKLFSKLGLKQVTGVSRVCIRKSKNILFVINKPDVFKSPGSDTYIIFGEAKIEDLTQHAQMSAIENLKPTREAPQLKTVEEDENEDVEEDSTGIEEKDIELVISQANTTRNKAIRALKEADNDIVNAIMSLTM
chain 2: MDSKAIAERIKKLQAQQEHVRIGGKGTPRRKKKVIHKTAAADDKKLQSNLKKLSVTNIPGIEEVNMIKDDGTVIHFNNPKVQTSVPANTFSVTGSADNKQITEMLPGILNQLGPESLTHLKKLANNVTKLGPDGKGEDEDVPELVGDFDAASKNETKADEQ
For B3, in test [2], the AtxQ78 aggregation result is listed as “prevented AtxQ78 aggregation but was slightly less effective than the human isoform”. The mHttQ51 aggregation result in test [1] is recorded as “to a lesser extent”.
